This note sets out measurements from patent US20210230304A1.

The target in the experiment is Chicken egg white-derived lysozyme (Sigma-Aldrich) (chicken) (UniProt P00698). Description: SPR, Biacore T200; antigen immobilised, antibody as analyte. Background: SPR reads the build-up and loss of mass on a sensor chip optically.
Sequence of Chicken egg white-derived lysozyme (Sigma-Aldrich) (chicken) (P00698 19-147): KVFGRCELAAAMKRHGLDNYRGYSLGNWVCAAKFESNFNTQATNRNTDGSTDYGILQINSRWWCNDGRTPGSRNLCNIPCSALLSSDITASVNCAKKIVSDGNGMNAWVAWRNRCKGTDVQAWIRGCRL

As a reminder, the Kd is the equilibrium constant for the complex coming apart. A lower Kd goes with tighter binding. Substance “mouse anti-lysozyme antibody of clone Hy-HEL5, wild-type” showed a Kd of 0.177 nM.
